Residue numbers refer to the chain shown, from its start.
B1: 0324-LN3_T65H (antibody, V domains shown)
VH: QVQLQQWGPGLVNPSETLSLTCSVSGGSFATENYYWSWIRQHPGEGLEWIGNIYFSGNHYYNPSLNNRFTISFDTSKNHLSLKLPSVTAADTAVYYCARGTIYFDLSGYRRVDPFHIWGQGTMVIVSS
VL: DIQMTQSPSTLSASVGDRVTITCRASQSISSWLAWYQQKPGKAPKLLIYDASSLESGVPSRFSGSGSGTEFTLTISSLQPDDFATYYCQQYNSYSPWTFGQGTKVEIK
notes: source: Expi293F, transfected
B2: 0390-YN3_T65S (antibody, V domains shown)
VH: B1 VH with H59S, L106Y
VL: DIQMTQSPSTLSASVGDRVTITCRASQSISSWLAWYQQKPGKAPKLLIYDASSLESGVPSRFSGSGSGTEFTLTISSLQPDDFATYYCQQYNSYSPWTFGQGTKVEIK
notes: source: Expi293F, transfected
B3: 0316-IN3_T65V (antibody, V domains shown)
VH: B1 VH with H59V, L106I
VL: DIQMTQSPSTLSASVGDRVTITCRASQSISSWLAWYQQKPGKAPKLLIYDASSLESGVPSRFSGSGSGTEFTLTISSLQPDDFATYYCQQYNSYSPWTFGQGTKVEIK
notes: source: Expi293F, transfected
B4: 0382-YN3_T65I (antibody, V domains shown)
VH: B1 VH with H59I, L106Y
VL: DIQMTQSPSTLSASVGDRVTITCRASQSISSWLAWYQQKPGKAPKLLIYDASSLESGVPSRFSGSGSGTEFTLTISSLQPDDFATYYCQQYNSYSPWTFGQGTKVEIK
notes: source: Expi293F, transfected
B5: 0385-YN3_T65M (antibody, V domains shown)
VH: B1 VH with H59M, L106Y
VL: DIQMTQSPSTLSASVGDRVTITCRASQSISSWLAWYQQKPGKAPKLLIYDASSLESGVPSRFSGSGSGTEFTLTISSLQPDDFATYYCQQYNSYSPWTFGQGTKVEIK
notes: source: Expi293F, transfected
B6: 0332-LN3_T65R (antibody, V domains shown)
VH: B1 VH with H59R
VL: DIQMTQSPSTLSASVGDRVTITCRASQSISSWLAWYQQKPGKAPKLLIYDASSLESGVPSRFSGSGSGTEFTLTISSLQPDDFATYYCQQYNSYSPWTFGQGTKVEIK
notes: source: Expi293F, transfected
B7: 0311-IN3_T65P (antibody, V domains shown)
VH: B1 VH with H59P, L106I
VL: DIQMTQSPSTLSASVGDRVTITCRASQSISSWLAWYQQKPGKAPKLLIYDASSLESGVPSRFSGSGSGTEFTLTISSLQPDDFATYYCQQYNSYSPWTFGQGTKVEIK
notes: source: Expi293F, transfected
B8: 0370-N3_T65R (antibody, V domains shown)
VH: B1 VH with H59R, L106R
VL: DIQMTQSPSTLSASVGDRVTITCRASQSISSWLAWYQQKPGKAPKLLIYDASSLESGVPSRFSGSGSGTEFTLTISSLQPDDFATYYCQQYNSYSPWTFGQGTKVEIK
notes: source: Expi293F, transfected
B9: 0306-IN3_T65I (antibody, V domains shown)
VH: B1 VH with H59I, L106I
VL: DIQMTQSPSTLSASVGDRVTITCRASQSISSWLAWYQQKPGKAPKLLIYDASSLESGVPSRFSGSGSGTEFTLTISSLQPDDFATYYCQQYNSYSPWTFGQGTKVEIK
notes: source: Expi293F, transfected
B10: 0369-N3_T65Q (antibody, V domains shown)
VH: B1 VH with H59Q, L106R
VL: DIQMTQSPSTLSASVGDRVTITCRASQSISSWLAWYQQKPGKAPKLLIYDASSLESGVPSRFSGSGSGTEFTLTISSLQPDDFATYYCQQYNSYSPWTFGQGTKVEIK
notes: source: Expi293F, transfected
B11: 0377-YN3_T65D (antibody, V domains shown)
VH: B1 VH with H59D, L106Y
VL: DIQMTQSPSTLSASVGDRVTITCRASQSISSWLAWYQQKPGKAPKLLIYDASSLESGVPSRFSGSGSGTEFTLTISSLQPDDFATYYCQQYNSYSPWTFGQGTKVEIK
notes: source: Expi293F, transfected
B12: 0337-LN3_T65Y (antibody, V domains shown)
VH: B1 VH with H59Y
VL: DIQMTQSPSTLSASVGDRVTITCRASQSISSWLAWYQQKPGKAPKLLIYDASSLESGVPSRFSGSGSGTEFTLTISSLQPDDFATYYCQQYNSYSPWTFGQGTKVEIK
notes: source: Expi293F, transfected
B13: 0305-IN3_T65H (antibody, V domains shown)
VH: B1 VH with L106I
VL: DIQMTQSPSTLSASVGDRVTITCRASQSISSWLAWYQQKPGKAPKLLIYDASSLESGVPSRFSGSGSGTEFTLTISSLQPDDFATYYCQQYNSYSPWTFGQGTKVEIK
notes: source: Expi293F, transfected
B14: 0303-IN3_T65F (antibody, V domains shown)
VH: B1 VH with H59F, L106I
VL: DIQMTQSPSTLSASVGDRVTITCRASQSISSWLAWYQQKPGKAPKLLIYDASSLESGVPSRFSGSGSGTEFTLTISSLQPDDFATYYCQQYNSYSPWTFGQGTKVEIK
notes: source: Expi293F, transfected
B15: 0309-IN3_T65M (antibody, V domains shown)
VH: B1 VH with H59M, L106I
VL: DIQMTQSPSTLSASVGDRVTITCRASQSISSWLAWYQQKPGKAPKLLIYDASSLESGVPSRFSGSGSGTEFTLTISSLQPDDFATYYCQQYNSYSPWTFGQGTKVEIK
notes: source: Expi293F, transfected
B16: 0312-IN3_T65Q (antibody, V domains shown)
VH: B1 VH with H59Q, L106I
VL: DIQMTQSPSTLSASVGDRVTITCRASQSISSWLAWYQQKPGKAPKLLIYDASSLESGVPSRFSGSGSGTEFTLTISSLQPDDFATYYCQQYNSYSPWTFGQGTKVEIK
notes: source: Expi293F, transfected
B17: 0333-LN3_T65S (antibody, V domains shown)
VH: B1 VH with H59S
VL: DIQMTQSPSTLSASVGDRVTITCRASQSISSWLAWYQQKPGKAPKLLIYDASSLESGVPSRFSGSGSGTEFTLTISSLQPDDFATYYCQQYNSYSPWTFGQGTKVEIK
notes: source: Expi293F, transfected
B18: 0310-IN3_T65N (antibody, V domains shown)
VH: B1 VH with H59N, L106I
VL: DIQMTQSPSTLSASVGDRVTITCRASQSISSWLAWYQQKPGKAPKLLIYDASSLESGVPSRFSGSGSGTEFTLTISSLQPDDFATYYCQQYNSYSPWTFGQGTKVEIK
notes: source: Expi293F, transfected
B19: 0373-N3_T65V (antibody, V domains shown)
VH: B1 VH with H59V, L106R
VL: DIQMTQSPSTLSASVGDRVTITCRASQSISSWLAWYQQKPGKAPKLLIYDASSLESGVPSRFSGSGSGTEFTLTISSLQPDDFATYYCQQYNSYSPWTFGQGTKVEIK
notes: source: Expi293F, transfected
B20: 0300-IN3_T65A (antibody, V domains shown)
VH: B1 VH with H59A, L106I
VL: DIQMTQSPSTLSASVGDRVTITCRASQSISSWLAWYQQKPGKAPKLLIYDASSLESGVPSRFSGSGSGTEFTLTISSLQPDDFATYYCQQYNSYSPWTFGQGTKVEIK
notes: source: Expi293F, transfected
B21: 0308-IN3_T65L (antibody, V domains shown)
VH: B1 VH with H59L, L106I
VL: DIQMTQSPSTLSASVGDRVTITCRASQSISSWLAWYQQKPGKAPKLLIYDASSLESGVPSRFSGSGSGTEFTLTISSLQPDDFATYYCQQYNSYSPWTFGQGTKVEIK
notes: source: Expi293F, transfected
B22: 0302-IN3_T65E (antibody, V domains shown)
VH: B1 VH with H59E, L106I
VL: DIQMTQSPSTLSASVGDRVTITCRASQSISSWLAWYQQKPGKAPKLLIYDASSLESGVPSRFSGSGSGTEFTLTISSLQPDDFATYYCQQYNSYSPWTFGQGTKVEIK
notes: source: Expi293F, transfected
B23: 0313-IN3_T65R (antibody, V domains shown)
VH: B1 VH with H59R, L106I
VL: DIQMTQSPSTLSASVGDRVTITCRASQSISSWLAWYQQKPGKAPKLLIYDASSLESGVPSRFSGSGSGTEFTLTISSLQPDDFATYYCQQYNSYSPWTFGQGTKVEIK
notes: source: Expi293F, transfected
B24: 0364-N3_T65K (antibody, V domains shown)
VH: B1 VH with H59K, L106R
VL: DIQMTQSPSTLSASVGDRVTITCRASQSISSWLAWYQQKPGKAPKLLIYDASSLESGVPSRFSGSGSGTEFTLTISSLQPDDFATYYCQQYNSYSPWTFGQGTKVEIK
notes: source: Expi293F, transfected
B25: 0314-IN3_T65S (antibody, V domains shown)
VH: B1 VH with H59S, L106I
VL: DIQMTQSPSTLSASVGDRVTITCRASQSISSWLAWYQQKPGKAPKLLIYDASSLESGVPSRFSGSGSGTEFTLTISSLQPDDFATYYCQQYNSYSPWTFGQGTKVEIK
notes: source: Expi293F, transfected
B26: 0301-IN3_T65D (antibody, V domains shown)
VH: B1 VH with H59D, L106I
VL: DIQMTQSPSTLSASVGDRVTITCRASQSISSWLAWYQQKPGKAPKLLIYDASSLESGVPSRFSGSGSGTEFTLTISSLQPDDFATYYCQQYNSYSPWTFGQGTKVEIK
notes: source: Expi293F, transfected
B27: 0387-YN3_T65P (antibody, V domains shown)
VH: B1 VH with H59P, L106Y
VL: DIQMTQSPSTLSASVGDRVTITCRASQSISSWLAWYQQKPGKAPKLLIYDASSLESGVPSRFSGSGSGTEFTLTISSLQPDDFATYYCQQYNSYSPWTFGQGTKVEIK
notes: source: Expi293F, transfected
B28: 0342-MN3_T65G (antibody, V domains shown)
VH: B1 VH with H59G, L106M
VL: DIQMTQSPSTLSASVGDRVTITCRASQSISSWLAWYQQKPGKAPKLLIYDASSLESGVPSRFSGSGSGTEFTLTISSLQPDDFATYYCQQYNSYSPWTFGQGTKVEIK
notes: source: Expi293F, transfected

Legend:
[1] = target: D614G-Hexapro (WT) spike ectodomain (SARS-CoV-2 Wuhan-Hu-1 D614G, D614G); assay: BLI
[2] = target: Omicron BA.1 spike protein ectodomain (BLI) (SARS-CoV-2 Omicron BA.1, strain); assay: BLI

Binder | Kd [1] [nM] | koff [1] [s⁻¹] | kon [1] [M⁻¹ s⁻¹] | Kd [2] [nM] | koff [2] [s⁻¹] | kon [2] [M⁻¹ s⁻¹]
B1 | 0.276 | 0.000291 | 1.06e+06 | 1.16 | 0.000413 | 356000
B2 | 830 | 0.00105 | 1270 | – | – | –
B3 | 89.3 | 2.62e-05 | 294 | 10.6 | 0.000555 | 52400
B4 | 2690 | 0.000811 | 302 | – | – | –
B5 | 9.93 | 0.00157 | 158000 | – | – | –
B6 | – | – | – | 38.9 | 0.0018 | 46200
B7 | 200 | 0.000578 | 2890 | 10.9 | 0.000965 | 88200
B8 | 111 | 3.63e-05 | 328 | 12.1 | 0.000266 | 22000
B9 | 524 | 0.000136 | 259 | 4.36 | 0.000517 | 119000
B10 | 65.4 | 0.000113 | 1730 | – | – | –
B11 | 634 | 0.000153 | 242 | 13.4 | 0.000269 | 20100
B12 | 87.3 | 0.000393 | 4500 | 11.7 | 0.000305 | 26100
B13 | 387 | 9.99e-05 | 258 | 2.89 | 0.000368 | 128000
B14 | 0.129 | 0.000115 | 887000 | 6.04 | 0.000575 | 95200
B15 | – | – | 184 | 15.7 | 0.00102 | 64800
B16 | 2.23 | 0.000511 | 229000 | 13.2 | 0.000887 | 67300
B17 | 146 | 4.17e-05 | 285 | 11.7 | 0.000566 | 48500
B18 | – | – | – | 15.2 | 0.000949 | 62500
B19 | 324 | 0.000461 | 1420 | 16 | 0.000565 | 35200
B20 | – | – | 210 | 3.61 | 0.000404 | 112000
B21 | 515 | 0.000134 | 261 | 3.92 | 0.000364 | 93000
B22 | 776 | 0.000163 | 210 | 8.27 | 0.000634 | 76700
B23 | 0.873 | 0.000516 | 591000 | 7.36 | 0.000758 | 103000
B24 | 288 | 9.92e-05 | 344 | – | – | –
B25 | – | – | – | 68.7 | 0.00114 | 16600
B26 | 306 | 6.75e-05 | 221 | 6.38 | 0.000601 | 94200
B27 | – | – | – | 9.21 | 9.1e-05 | 9880
B28 | 69.1 | 0.000217 | 3140 | 8.08 | 0.000428 | 53000
